Results on 2 molecules are retold here after US20190247480A1.

The target in the experiment is HLA-A3 (human). Description: assembly assay, stabilisation of HLA-A3 in T2-A3 lysates, W6/32 immunoprecipitation.

B1: Rho1 (…), native RhoC-derived peptide (peptide)
peptide: RAGLQVRKNK
Take B1: the C50 value (peptide concentration required for half maximal recovery of class I MHC molecules) was greater than 40.

B2: Rho1L2 (…), modified RhoC peptide with Leu at position 2 (peptide)
peptide: RLGLQVRKNK
B2 came in with a C50 value (peptide concentration required for half maximal recovery of class I MHC molecules) of 4.
